PMC11258540 (Molecular Cell, 2024)
Substitutions are numbered along the chain they refer to. Names may count otherwise. Like-named read-outs stand apart in the source and are kept apart here.

B1: human PUS3 D118A, catalytically inactive variant (enzyme, UniProt Q9BZE2 1-481, looked up)
chain: MAYNDTDRNQTEKLLKRVRELEQEVQRLKKEQAKNKEDSNIRENSAGAGKTKRAFDFSAHGRRHVALRIAYMGWGYQGFASQENTNNTIEEKLFEALTKTRLVESRQTSNYHRCGRTAKGVSAFGQVISLDLRSQFPRGRDSEDFNVKEEANAAAEEIRYTHILNRVLPPDIRILAWAPVEPSFSARFSCLERTYRYFFPRADLDIVTMDYAAQKYVGTHDFRNLCKMDVANGVINFQRTILSAQVQLVGQSPGEGRWQEPFQLCQFEVTGQAFLYHQVRCMMAILFLIGQGMEKPEIIDELLNIEKNPQKPQYSMAVEFPLVLYDCKFENVKWIYDQEAQEFNITHLQQLWANHAVKTHMLYSMLQGLDTVPVPCGIGPKMDGMTEWGNVKPSVIKQTSAFVEGVKMRTYKPLMDRPKCQGLESRIQHFVRRGRIEHPHLFHEEETKAKRDCNDTLEEENTNLETPTKRVCVDTEIKSII
B2: human PUS3 H355T/T359A (enzyme, UniProt Q9BZE2 1-481, looked up)
chain: B1 chain with A118D, H355T, T359A

Experiments:
SEC = biological target: the molecule itself; assay: SEC
[1] = biological target: the molecule itself

Protein | stoichiometry N (SEC) | stoichiometry N [1]
B1 | 2 | 
B2 |  | 2
